{
  "source": "paper doi:10.1101/2024.11.26.625467",
  "molecular_target": "CO17 B NA (neuraminidase head of B/Colorado/06/2017, B/Victoria-lineage) (influenza B virus B/Colorado/06/2017)",
  "assay": "cryo-EM structure",
  "data": [
    {"substance": "CO17 B NA (neuraminidase head of B/Colorado/06/2017, B/Victoria-lineage) (domain or fragment)", "values": [
      {"measurement": "stoichiometry N", "result": 4}
    ]}
  ]
}
